In patent US7741283B2, “Compositions and methods for inhibiting cell proliferation” (St. Louis University, priority 2003, dated 2010):

Columns and labels:
IRS-2 = experiment: 32P metabolic labeling and immunoprecipitation of IRS-2, Mv1Lu cells; format: cell-based, mink; details: Mv1Lu; for Induction of specific dephosphorylation (mobility change) of 32P-labeled IRS-2: IGFBPs 1 μg/ml, TGF-β1 20 pM
[1] = test system: TβR-V purified from bovine liver plasma membranes; experiment: 125I-IGFBP-3 / 125I-TGF-β1 affinity labeling of purified TβR-V; format: binding; details: DSS, β1^25(41-65) 20 μM, RAP 10-40 μg/ml, α2M* 100 nM, lactoferrin 100 nM
acidic pH binding sites [2] = target: acidic pH binding sites (Neogale vison, UniProt A0A8C7BSJ2); experiment: Specific binding of 125I-ligands to Mv1Lu cells at acidic pH; design: species or system mink
Sequence of acidic pH binding sites (Neogale vison, UniProt A0A8C7BSJ2) (A0A8C7BSJ2 entry or part of it): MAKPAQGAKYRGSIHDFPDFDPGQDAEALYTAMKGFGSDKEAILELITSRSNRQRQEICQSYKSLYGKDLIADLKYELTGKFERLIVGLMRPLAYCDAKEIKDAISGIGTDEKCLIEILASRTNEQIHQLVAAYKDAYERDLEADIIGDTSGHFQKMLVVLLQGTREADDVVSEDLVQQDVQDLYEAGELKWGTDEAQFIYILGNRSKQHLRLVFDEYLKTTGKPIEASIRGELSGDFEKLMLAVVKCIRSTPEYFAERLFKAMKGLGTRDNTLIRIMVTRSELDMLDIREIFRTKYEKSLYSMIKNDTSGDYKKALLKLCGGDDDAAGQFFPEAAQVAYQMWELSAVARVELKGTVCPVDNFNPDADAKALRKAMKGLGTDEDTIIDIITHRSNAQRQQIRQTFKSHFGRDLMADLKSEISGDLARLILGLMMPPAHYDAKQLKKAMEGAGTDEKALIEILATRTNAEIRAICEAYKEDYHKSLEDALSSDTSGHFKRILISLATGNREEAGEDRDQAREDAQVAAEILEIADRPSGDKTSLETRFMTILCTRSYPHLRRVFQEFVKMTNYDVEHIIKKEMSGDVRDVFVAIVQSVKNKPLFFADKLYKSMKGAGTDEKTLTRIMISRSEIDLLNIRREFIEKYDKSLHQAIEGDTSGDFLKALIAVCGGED

acidic pH binding sites [3] = target: T1, acidic pH binding sites (Mus musculus, UniProt P14824); experiment: Specific binding of 125I-ligands to MEF cells at acidic pH; details: 10 μM protein, pH 5.5, MEF
T1 sequence (P14824 2-673): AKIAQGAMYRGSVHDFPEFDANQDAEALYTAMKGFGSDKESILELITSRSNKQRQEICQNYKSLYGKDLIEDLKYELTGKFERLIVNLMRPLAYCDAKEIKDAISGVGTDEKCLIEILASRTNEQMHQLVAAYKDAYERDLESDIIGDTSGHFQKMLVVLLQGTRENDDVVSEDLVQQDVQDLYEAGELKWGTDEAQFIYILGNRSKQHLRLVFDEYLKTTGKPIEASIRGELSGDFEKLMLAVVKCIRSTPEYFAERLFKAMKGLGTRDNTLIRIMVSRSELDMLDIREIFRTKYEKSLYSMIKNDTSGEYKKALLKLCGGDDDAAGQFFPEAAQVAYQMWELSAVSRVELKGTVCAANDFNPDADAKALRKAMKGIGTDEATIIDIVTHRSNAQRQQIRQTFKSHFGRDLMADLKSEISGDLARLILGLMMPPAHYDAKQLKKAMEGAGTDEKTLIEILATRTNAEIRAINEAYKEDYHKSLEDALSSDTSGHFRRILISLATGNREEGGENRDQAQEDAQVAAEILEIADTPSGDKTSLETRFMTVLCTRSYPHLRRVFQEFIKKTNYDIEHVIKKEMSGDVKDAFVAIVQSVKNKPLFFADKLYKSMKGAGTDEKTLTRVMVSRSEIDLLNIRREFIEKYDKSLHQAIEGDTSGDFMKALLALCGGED

LRP-1 [4] = experiment: 125I-α2M* binding to Mv1Lu cells at pH 7.4; design: species or system mink; details: 10 μM protein, pH 7.4, Mv1Lu
LRP-1 [5] = target: T2, LRP-1 (Mus musculus, UniProt Q91ZX7); experiment: 125I-α2M* binding to MEF cells at pH 7.4; details: 10 μM protein, pH 7.4, MEF
T2 construct: endogenous in cells; host or cells: MEF (mouse embryonic fibroblasts)
T2 sequence (Q91ZX7 20-4545): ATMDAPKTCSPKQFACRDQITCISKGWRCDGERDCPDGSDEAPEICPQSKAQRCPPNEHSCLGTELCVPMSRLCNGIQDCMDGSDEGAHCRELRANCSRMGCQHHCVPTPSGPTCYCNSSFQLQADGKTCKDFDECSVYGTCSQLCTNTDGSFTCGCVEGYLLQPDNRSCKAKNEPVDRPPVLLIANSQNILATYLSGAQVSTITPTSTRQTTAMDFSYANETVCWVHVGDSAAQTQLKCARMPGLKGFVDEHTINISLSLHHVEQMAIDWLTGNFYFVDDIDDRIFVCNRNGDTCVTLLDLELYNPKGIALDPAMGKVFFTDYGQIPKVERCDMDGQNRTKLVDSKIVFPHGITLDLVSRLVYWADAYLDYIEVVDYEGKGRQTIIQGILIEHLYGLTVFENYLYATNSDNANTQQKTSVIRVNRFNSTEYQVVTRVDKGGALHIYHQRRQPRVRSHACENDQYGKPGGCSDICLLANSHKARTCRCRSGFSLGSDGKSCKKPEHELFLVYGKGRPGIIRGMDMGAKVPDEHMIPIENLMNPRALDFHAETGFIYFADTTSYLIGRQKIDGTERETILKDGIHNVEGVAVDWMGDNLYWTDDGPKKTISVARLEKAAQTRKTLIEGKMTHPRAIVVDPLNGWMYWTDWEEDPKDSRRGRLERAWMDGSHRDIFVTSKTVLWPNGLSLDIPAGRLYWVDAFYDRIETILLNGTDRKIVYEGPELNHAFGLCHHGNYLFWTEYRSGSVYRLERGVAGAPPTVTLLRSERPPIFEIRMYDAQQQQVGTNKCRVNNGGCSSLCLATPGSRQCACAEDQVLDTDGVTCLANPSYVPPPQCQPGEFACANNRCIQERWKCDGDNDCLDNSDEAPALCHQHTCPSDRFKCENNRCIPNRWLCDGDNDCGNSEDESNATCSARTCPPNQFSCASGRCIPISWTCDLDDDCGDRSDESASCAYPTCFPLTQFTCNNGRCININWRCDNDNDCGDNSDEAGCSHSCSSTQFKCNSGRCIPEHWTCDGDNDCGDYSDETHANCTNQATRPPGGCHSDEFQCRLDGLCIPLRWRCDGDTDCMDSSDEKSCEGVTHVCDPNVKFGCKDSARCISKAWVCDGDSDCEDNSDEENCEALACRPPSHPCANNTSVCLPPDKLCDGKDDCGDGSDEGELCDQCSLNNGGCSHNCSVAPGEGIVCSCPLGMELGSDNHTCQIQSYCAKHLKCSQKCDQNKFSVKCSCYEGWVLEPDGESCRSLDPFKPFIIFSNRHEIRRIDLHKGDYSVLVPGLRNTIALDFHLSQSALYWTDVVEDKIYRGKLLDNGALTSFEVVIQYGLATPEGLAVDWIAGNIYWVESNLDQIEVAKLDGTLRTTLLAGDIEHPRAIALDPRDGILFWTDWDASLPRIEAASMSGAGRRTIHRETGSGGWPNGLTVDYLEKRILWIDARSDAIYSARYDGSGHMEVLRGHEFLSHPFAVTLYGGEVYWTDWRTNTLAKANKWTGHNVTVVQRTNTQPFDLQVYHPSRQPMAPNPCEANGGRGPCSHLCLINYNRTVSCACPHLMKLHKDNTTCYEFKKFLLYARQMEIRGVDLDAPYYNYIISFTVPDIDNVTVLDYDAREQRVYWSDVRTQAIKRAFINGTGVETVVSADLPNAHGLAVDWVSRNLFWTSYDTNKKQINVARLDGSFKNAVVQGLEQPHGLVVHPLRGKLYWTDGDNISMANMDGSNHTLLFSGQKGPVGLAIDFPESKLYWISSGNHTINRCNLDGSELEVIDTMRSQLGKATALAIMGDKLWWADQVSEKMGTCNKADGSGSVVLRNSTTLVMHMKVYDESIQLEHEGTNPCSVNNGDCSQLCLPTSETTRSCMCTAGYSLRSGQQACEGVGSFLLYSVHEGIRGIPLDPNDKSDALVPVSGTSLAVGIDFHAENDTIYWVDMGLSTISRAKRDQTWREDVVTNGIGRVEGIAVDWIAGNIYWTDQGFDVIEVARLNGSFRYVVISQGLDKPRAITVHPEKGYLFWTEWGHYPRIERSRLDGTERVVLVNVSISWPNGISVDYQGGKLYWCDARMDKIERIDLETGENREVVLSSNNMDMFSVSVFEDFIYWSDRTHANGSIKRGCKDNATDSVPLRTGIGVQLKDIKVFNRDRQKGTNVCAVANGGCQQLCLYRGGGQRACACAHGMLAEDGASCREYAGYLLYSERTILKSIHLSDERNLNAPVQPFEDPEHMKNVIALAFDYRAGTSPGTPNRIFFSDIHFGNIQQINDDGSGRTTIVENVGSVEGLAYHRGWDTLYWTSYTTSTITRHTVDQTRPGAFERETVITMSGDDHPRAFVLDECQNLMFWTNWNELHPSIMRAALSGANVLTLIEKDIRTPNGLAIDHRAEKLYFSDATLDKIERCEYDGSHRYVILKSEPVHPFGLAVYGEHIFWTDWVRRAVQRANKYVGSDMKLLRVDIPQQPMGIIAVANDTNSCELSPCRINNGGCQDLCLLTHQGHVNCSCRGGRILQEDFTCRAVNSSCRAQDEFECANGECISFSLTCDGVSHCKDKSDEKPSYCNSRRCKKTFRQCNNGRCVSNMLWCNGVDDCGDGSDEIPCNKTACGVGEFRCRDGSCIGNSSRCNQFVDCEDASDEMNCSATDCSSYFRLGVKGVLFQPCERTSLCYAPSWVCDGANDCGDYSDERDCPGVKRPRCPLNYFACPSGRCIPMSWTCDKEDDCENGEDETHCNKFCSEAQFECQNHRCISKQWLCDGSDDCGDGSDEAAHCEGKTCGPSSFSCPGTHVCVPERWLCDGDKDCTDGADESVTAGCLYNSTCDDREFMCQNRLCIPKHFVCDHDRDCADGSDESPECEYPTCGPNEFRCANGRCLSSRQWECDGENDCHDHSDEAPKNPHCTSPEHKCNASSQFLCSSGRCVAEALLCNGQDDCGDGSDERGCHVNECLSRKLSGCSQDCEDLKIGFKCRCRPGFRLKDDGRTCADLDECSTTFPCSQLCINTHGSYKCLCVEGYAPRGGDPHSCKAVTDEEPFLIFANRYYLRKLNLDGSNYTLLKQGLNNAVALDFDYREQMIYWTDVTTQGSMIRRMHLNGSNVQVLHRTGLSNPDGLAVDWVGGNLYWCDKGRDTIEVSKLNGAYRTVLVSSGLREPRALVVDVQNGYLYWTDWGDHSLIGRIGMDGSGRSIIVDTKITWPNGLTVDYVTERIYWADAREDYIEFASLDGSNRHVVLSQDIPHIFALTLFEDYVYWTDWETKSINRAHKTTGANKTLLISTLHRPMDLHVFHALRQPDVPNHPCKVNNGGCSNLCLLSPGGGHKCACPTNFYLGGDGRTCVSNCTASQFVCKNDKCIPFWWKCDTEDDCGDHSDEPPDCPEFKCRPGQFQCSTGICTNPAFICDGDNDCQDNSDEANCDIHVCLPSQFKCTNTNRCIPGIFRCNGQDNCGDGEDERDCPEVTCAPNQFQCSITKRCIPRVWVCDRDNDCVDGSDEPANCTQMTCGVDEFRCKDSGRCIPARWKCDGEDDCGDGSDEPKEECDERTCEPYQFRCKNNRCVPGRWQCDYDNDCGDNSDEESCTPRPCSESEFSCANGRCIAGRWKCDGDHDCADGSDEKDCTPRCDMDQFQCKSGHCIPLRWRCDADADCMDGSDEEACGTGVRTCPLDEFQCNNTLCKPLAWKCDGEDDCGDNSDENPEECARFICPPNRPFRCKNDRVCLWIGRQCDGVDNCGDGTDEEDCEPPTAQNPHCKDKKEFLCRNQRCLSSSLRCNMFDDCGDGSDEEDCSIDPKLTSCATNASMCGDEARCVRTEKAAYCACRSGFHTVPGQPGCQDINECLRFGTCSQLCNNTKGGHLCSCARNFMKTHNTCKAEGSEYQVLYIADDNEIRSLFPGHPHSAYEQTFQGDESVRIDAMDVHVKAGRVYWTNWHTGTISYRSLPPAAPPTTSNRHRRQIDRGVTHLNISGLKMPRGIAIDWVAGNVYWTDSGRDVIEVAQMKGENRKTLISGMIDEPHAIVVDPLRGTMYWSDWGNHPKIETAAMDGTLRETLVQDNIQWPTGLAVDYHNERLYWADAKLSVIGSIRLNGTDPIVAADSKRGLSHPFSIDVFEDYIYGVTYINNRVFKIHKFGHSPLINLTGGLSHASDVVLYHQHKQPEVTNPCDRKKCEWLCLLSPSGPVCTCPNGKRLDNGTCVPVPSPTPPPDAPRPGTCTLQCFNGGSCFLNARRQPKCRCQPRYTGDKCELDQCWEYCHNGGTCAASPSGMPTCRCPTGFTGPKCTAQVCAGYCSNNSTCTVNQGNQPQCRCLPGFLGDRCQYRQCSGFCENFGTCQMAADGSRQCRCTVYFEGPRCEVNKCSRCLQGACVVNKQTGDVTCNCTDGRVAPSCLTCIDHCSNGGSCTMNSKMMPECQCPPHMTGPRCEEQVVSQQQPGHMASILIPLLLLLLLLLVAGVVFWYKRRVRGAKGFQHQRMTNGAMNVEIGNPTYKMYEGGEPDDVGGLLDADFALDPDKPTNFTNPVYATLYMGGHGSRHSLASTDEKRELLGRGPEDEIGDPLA

acidic pH binding sites [6] = target: T1, acidic pH binding sites; experiment: Specific binding of 125I-ligands to PEA-13 cells at acidic pH; design: endogenous in cells; host or cells: PEA-13 (LRP-1-deficient mouse embryonic fibroblasts); details: 10 μM protein, pH 5.5, PEA-13
Mv1Lu cells = experiment: [methyl-3H] thymidine incorporation (DNA synthesis), Mv1Lu cells; format: cell-based, mink; details: Mv1Lu cells

B1: IGFBP-2: IGFBP known not to bind to the IGFBP-3 receptor (protein, UniProt P18065 36-325, looked up)
Insulin-like growth …: AEVLFRCPPCTPERLAACGPPPVAPPAAVAAVAGGARMPCAELVREPGCGCCSVCARLEGEACGVYTPRCGQGLRCYPHPGSELPLQALVMGEGTCEKRRDAEYGASPEQVADNGDDHSEGGLVENHVDSTMNMLGGGGSAGRKPLKSGMKELAVFREKVTEQHRQMGKGGKHHLGLEEPKKLRPPPARTPCQQELDQVLERISTMRLPDERGPLEHLYSLHIPNCDKHGLYNLKQCKMSLNGQRGECWCVNPNTGKLIQGAPTIRGDPECHLFYNEQQEARGVHTQRMQ
Induction of specific dephosphorylation (mobility change) of 32P-labeled IRS-2 (IRS-2): did not induce

B2: lactoferrin: bovine lactoferrin, an LRP-1 ligand (protein, UniProt P24627 20-708, looked up)
Lactotransferrin: APRKNVRWCTISQPEWFKCRRWQWRMKKLGAPSITCVRRAFALECIRAIAEKKADAVTLDGGMVFEAGRDPYKLRPVAAEIYGTKESPQTHYYAVAVVKKGSNFQLDQLQGRKSCHTGLGRSAGWIIPMGILRPYLSWTESLEPLQGAVAKFFSASCVPCIDRQAYPNLCQLCKGEGENQCACSSREPYFGYSGAFKCLQDGAGDVAFVKETTVFENLPEKADRDQYELLCLNNSRAPVDAFKECHLAQVPSHAVVARSVDGKEDLIWKLLSKAQEKFGKNKSRSFQLFGSPPGQRDLLFKDSALGFLRIPSKVDSALYLGSRYLTTLKNLRETAEEVKARYTRVVWCAVGPEEQKKCQQWSQQSGQNVTCATASTTDDCIVLVLKGEADALNLDGGYIYTAGKCGLVPVLAENRKSSKHSSLDCVLRPTEGYLAVAVVKKANEGLTWNSLKDKKSCHTAVDRTAGWNIPMGLIVNQTGSCAFDEFFSQSCAPGADPKSRLCALCAGDDQGLDKCVPNSKEKYYGYTGAFRCLAEDVGDVAFVKNDTVWENTNGESTADWAKNLNREDFRLLCLDGTRKPVTEAQSCHLAVAPNHAVVSRSDRAAHVKQVLLHQQALFGKNGKNCPDKFCLFKSETKNLLFNDNTECLAKLGGRPTYEEYLGTEYVTAIANLKKCSTSPLLEACAFLTR
^125I-TGF-β1 binding to purified TβR-V ([1]; 0.1 nM 125I-TGF-β1, […] 0° C.): did not have a significant effect
^125I-IGFBP-3 binding to purified TβR-V ([1]; 10 nM 125I-IGFBP-3, […] 0° C.): did not have a significant effect
Specific binding of ^125I-α2M* (acidic pH binding sites [2]; 10 μM protein, pH 5.5, Mv1Lu): completely blocked
IC50 (acidic pH binding sites [2]; Mv1Lu cells, pH 5 or 6, read-out: IC50, inhibition of ^125I-α2M* binding to cells): ~50 nM
Specific binding of ^125I-α2M* (acidic pH binding sites [3]): completely blocked
^125I-α2M* binding (LRP-1 [4]): did not have a significant effect
^125I-α2M* binding (LRP-1 [5]): did not have a significant effect
Specific binding of ^125I-α2M* (acidic pH binding sites [6]): completely blocked

B3: IGFBP-1: IGFBP known not to bind to the IGFBP-3 receptor (protein)
chain: APWQCAPCSAEKLALCPPVSASCSEVTRSAGCGCCPMCALPLGAACGVATARCARGLSCRALPGEQQPLHALTRGQGACVQESDASAPHAAEAGSPESPESTEITEEELLDNFHLMAPSEEDHSILWDAISTYDGSKALHVTNIKKWKEPCRIELYRVVESLAKAQETSGEEISKFYLPNCNKNGFYHSRQCETSMDGEAGLCWCVYPWNGKRIPGSPEIRGDPNCQIYFNVQN
Induction of specific dephosphorylation (mobility change) of 32P-labeled IRS-2 (IRS-2): did not induce

B4: (Q^3A^4Y^15L^16) IGF-I: an IGF-I analog which has a low affinity for IGFBP-3 (protein, UniProt P05019 49-118, looked up, variant E3Q T4A Q15Y F16L)
Insulin-like growth factor 1: GPQALCGAELVDALYLVCGDRGFYFNKPTGYGSSSRRAPQTGIVDECCFRSCDLRRLEMYCAPLKPAKSA
modifications: Insulin-like growth factor I
Blocking of IGFBP-3-induced growth inhibition (Mv1Lu cells): completely blocked
Blocking of IGFBP-3-induced specific dephosphorylation of IRS-2 by growth factors/cytokines (IRS-2; IGFBP-3 1 μg/ml […] then factor 10 nM (TGF-β1 20 pM) 0.5 hr): blocked
